Bridges are numbered along the chain shown (N, C = ends). Where no end group is shown, it is not given here. rhodamine = 5(6)-carboxytetramethylrhodamine label attached at the N-terminus
Key:
whole human blood [1] = test: Activated clotting times (ACT) with whole human blood; settings: positive control, collagen 0.095 mg/mL
Procedure: (§1) Hemocompatibility analysis.
Activated clotting times (ACT) with whole human blood. A Hemochron 801 instrument calibrated with an electronic system verification (ESV) device was used to measure activated clotting time (ACT) of whole human blood. Activated clotting times (ACT) were determined using recalcified citrated whole human blood to minimize variability in starting time points for clotting in all assays.^71 To each Hemochron P214 tube with glass beads was added 4 μL CaCl2 (1.1 M) and 36 μL peptide stock or additive (12.2× final blood concentration). Samples were mixed thoroughly for 30 s to soak the glass beads and incubated 30 s at 37° C. Citrated whole human blood (400 μL) was then added (t=0 s), mixed by hand for 10 s, and added to the instrument. Time points at which the magnet was displaced by clot formation were recorded by the instrument. Collagen (0.095 mg/mL) was used as a positive control to […] clotting time. Vehicle (1×DPBS) served as a standard for blood without additive. Samples without calcium, serving as the negative control, exceeded instrument maximum time range (>1500 sec). Each experiment was performed n=6 times with averages and standard error of the mean (SEM) plotted.

whole human blood [2] = test: Whole blood hemostasis kinetics (non-activated whole blood clotting assay); settings: positive controls; recalcified whole human blood
Procedure: as §1
Whole blood hemostasis kinetics. Changes to time-dependent hemostasis were monitored using a non-activated whole blood clotting assay.^72 Briefly, 100 μL of citrated whole human was mixed with 10 μL of peptide or collagen stock (11.5× final blood concentration) and 5 μL of CaCl2 (230 mM). Collagen (0.095 mg/mL) and glass coverslips were used as positive controls to increase clotting rates from an additive and contact initiated perspective, respectively. […] Aliquots (100 μL) were transferred to a 12-well TCP, covered, and incubated at r.t. for 5 min, 15 min, 30 min, and 45 min. Each sample was prepared in triplicate. At the end of each time point, RBCs not caught in the thrombus were lysed by gently adding 3 mL distilled H2O and incubating for 5 min. Each well was sampled (200 μL), taking care not to disturb the clot, and transferred to a 96 well plate for analysis. Released hemoglobin from lysis was detected by measuring the absorbance at 405 nm (height 4.0 mm, 100 flashes) using a plate reader. Extent of clotting is inversely proportional to measured absorbance. Averages (n=3) and standard error of the mean (SEM) are plotted.

red blood cells (RBCs) = test: Hemolysis of red blood cells (RBCs); type: cell-based, human; settings: positive (normalization) control 1% Triton X-100; isolated RBCs, 1 hr incubation; n=4
Procedure: as §1
Hemolysis assay. Acute toxicity of cyclic peptide progelator was measured with a RBC hemolysis assay specific to biomacromolecular drug analysis, as previously described.^73 Averages (n=4) and standard error of the mean (SEM) for absorbance measurements (at 540 nm) were plotted.

[3] = Viscoelastic measurements of functionalized SAP hydrogels (gel capacity); type: physicochemical; settings: 15 mg/mL in 1×DPBS, 2.5 rad/s
Procedure: (§2) Rheological characterization. All peptide samples were prepared at 10 mM peptide, except for those used to assess the effect of SAP functionalization with respect to weight (15 mg/mL). Viscous and viscoelastic properties were assessed using a stress-controlled rheometer (TA Instruments AR-02) equipped with a Peltier plate to control temperature and a 20 mm diameter parallel plate geometry. Unless otherwise stated all measurements were taken at an angular frequency of 2.5 rad s^−1, strain of 0.5%, and temperature of 37° C. Measurements were performed with a gap height of 1000 μm and repeated three times (except for step-strain tests) to ensure reproducibility. To prevent water evaporation, mineral oil was wrapped around the edge of the geometry at the air-sample interface. For viscoelastic measurements the apparatus was used in oscillatory mode. […] The dynamic moduli of the hydrogels were measured as a function of frequency in the range 0_25-100 rad s^−1 at a strain of 0.5%. Continuous step-strain oscillations were used to monitor hydrogel healing through disruption (3 min, 100% strain) and recovery (15 min. 0.5% strain) cycles (n=3). Temperature sweeps were measured by increasing the apparatus temperatures from 21-40° C. at a ramp rate of 0.5° C./min. […] The viscosity of the samples was measured as a function of shear rate in the range 0.1-10 s^−1 (5% tolerance.

Thermolysin [4] = target: T1, Thermolysin (Bacillus thermoproteolyticus, UniProt P00800); test: Time course rheological analysis of bulk gelation after thermolysin addition; type: physicochemical; set-up: purchased Promega V400A; settings: 10 mM in 1×DPBS, thermolysin 1:4500 added at t=40 min, 37° C.
T1 sequence (P00800 233-548): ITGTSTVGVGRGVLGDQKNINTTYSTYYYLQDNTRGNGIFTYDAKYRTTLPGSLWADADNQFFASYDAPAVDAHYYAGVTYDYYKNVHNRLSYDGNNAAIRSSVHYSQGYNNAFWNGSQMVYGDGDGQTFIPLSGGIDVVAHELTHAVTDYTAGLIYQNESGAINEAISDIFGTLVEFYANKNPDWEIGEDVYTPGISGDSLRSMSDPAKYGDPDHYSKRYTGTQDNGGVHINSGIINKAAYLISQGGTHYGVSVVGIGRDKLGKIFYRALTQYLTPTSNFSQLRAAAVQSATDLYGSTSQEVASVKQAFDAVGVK
Procedure: as §2

[5] = target: T2, MMP-9 (recombinant human catalytic domain) (Homo sapiens, UniProt P14780); test: In vitro enzyme cleavage of cyclic progelator by MMP-9; type: biochemical; settings: 1:1000 enzyme/substrate, 5 hr; denatured enzyme elicited no response
T2 construct: MMP-9 (recombinant human catalytic domain); purchased Enzo Life Sciences BML-SEro360
T2 sequence (P14780 107-444 limits assumed): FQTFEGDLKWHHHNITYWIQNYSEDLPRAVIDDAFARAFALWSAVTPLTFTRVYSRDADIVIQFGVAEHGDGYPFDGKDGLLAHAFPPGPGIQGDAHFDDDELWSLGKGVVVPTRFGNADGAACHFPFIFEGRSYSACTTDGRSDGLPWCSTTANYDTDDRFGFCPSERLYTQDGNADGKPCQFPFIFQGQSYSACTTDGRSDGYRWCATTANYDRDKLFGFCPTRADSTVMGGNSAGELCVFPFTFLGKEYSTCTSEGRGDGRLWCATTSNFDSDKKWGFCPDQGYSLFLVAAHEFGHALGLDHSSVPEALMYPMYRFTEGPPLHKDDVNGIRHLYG
Description: (§3) Transmission electron microscopy (TEM).
(§4) In vitro enzyme cleavage of cyclic peptide progelator. […] Control samples utilized denatured enzymes under the same conditions.

[6] = target: T3, Porcine pancreatic elastase (Sus scrofa, UniProt P00772); test: In vitro enzyme cleavage of cyclic progelator by elastase; type: biochemical; settings: 1:250 enzyme/substrate, 5 hr; denatured enzyme elicited no response
T3 construct: purchased EMD Millipore 3246821000U
T3 sequence (P00772 27-266): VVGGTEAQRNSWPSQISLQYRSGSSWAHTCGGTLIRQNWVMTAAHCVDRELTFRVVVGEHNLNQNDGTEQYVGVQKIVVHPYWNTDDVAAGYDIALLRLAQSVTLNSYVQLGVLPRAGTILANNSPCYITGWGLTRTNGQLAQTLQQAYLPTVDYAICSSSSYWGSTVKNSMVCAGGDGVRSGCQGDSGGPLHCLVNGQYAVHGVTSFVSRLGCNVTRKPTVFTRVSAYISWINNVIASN
Description: as §3, §4

Thermolysin [7] = target: T1, Thermolysin; settings: 1:4500 enzyme/substrate
Procedure: General information. […] Thermolysin (V400A) was acquired from Promega, as a lyophilized powder.
In vitro enzyme cleavage of cyclic peptide progelator. Unless otherwise stated, enzyme cleavage experiments were performed on progelator at a final concentration of 500 μM in 1× enzyme cleavage buffers. […] Thermolysin cleavages were performed at 1:4500 enzyme/substrate molar ratio in 1× buffer (1×DPBS, pH 7.4) for 15 min. […] Control samples utilized denatured enzymes under the same conditions. […] Thermolysin was inactivated by incubation with 10% (v/v) EDTA (0.5 M, pH 8.0)

## collagen [reference compound]
Whole human blood [1]
  effect on clot time vs vehicle (ACT): significant clot time reduction
Whole human blood [1]; whole human blood, n=6
  Activated clotting time (ACT), Average Time: 150 s
Whole human blood [2]
  clot rate (hemostasis kinetics): increased the clot rate

## Triton X-100 [1% Triton X-100]
Red blood cells (RBCs)
  % Hemolysis: 100.00%

## C(KFDF)3PLGLAGC (SEQ ID NO: 7) (CKFDFKFDFKFDFPLGLAGC) [KFDF (SEQ ID NO:1)Linear, modified linear SAP primed for cyclization, no fluorescent label]
[3]
  gelling capacity (tanδ<1) and strain tolerance vs unmodified SAP: no significant disruptive effects to gelling capacity

## CKLDLKLDLKLDLPLGLAGC (SEQ ID NO:6) (disulfide 1-20) [KLDL (SEQ ID NO:5)Cyclic, unlabeled cyclized enzyme-responsive progelator]
Thermolysin [4]
  time at which steady state of shear moduli (G′, G″) was reached: 200 min

## Rho-KLDL (SEQ ID NO:5)Cyclic: rhodamine labeled cyclized KLDL progelator (SEQ ID NO:6) (rhodamine-CKLDLKLDLKLDLPLGLAGC; disulfide 1-20)
[5]
  response to active MMP-9 cleavage (visual, TEM): induced visible aggregation in the reaction vial and entangled fibrous meshes by TEM
[6]
  response to active elastase cleavage (visual, TEM): induced visible aggregation in the reaction vial and entangled fibrous meshes by TEM
Thermolysin [7]
  response to thermolysin incubation (TEM): induced fiber formation by TEM

## Rho-KFDF (SEQ ID NO:1)Cyclic: rhodamine labeled cyclized KFDF progelator (SEQ ID NO:7) (rhodamine-CKFDFKFDFKFDFPLGLAGC; disulfide 1-20)
[5]
  response to active MMP-9 cleavage (visual, TEM): induced visible aggregation in the reaction vial and entangled fibrous meshes by TEM
[6]
  response to active elastase cleavage (visual, TEM): induced visible aggregation in the reaction vial and entangled fibrous meshes by TEM
Thermolysin [7]
  response to thermolysin incubation (TEM): induced fiber formation by TEM

## C(KLDL)3PLGLAGC (SEQ ID NO: 6) (CKLDLKLDLKLDLPLGLAGC) [KLDL (SEQ ID NO:5)Linear, modified linear SAP primed for cyclization, no fluorescent label]
[3]
  gelling capacity (tanδ<1) and strain tolerance vs unmodified SAP: no significant disruptive effects to gelling capacity
